Measurements from paper PMC6815173 (Proceedings of the National Academy of Sciences of the …, 2019).
Blank lines part the entries; values can stand above or below the binder they belong to.

B3: full-length human αE-catenin (natural protein)
chain: GMTAVHAGNINFKWDPKSLEIRTLAVERLLEPLVTQVTTLVNTNSKGPSNKKRGRSKKAHVLAASVEQATENFLEKGDKIAKESQFLKEELVAAVEDVRKQGDLMKAAAGEFADDPCSSVKRGNMVRAARALLSAVTRLLILADMADVYKLLVQLKVVEDGILKLRNAGNEQDLGIQYKALKPEVDKLNIMAAKRQQELKDVGHRDQMAAARGILQKNVPILYTASQACLQHPDVAAYKANRDLIYKQLQQAVTGISNAAQATASDDASQHQGGGGGELAYALNNFDKQIIVDPLSFSEERFRPSLEERLESIISGAALMADSSCTRDDRRERIVAECNAVRQALQDLLSEYMGNAGRKERSDALNSAIDKMTKKTRDLRRQLRKAVMDHVSDSFLETNVPLLVLIEAAKNGNEKEVKEYAQVFREHANKLIEVANLACSISNNEEGVKLVRMSASQLEALCPQVINAALALAAKPQSKLAQENMDLFKEQWEKQVRVLTDAVDDITSIDDFLAVSENHILEDVNKCVIALQEKDVDGLDRTAGAIRGRAARVIHVVTSEMDNYEPGVYTEKVLEATKLLSNTVMPRFTEQVEAAVEALSSDPAQPMDENEFIDASRLVYDGIRDIRKAVLMIRTPEELDDSDFETEDFDVRSRTSVQTEDDQLIAGQSARAIMAQLPQEQKAKIAEQVASFQEEKSKLDAEVSKWDDSGNDIIVLAKQMCMIMMEMTDFTRGKGPLKNTSDVISAAKKIAEAGSRMDKLGRTIADHCPDSACKQDLLAYLQRIALYCHQLNICSKVKAEVQNLGGELVVSGVDSAMSLIQAAKNLMNAVVQTVKASYVASTKYQKSQGMASLNLPAVSWKMKAPEKKPLVKREKQDETQTKIKRASQKKHVNPVQALSEFKAMDSI
B4: full-length human β-catenin (natural protein)
chain: GMATQADLMELDMAMEPDRKAAVSHWQQQSYLDSGIHSGATTTAPSLSGKGNPEEEDVDTSQVLYEWEQGFSQSFTQEQVADIDGQYAMTRAQRVRAAMFPETLDEGMQIPSTQFDAAHPTNVQRLAEPSQMLKHAVVNLINYQDDAELATRAIPELTKLLNDEDQVVVNKAAVMVHQLSKKEASRHAIMRSPQMVSAIVRTMQNTNDVETARCTAGTLHNLSHHREGLLAIFKSGGIPALVKMLGSPVDSVLFYAITTLHNLLLHQEGAKMAVRLAGGLQKMVALLNKTNVKFLAITTDCLQILAYGNQESKLIILASGGPQALVNIMRTYTYEKLLWTTSRVLKVLSVCSSNKPAIVEAGGMQALGLHLTDPSQRLVQNCLWTLRNLSDAATKQEGMEGLLGTLVQLLGSDDINVVTCAAGILSNLTCNNYKNKMMVCQVGGIEALVRTVLRAGDREDITEPAICALRHLTSRHQEAEMAQNAVRLHYGLPVVVKLLHPPSHWPLIKATVGLIRNLALCPANHAPLREQGAIPRLVQLLVRAHQDTQRRTSMGGTQQQFVEGVRMEEIVEGCTGALHILARDVHNRIVIRGLNTIPLFVQLLYSPIENIQRVAAGVLCELAQDKEAAEAIEAEGATAPLTELLHSRNEGVATYAAAVLFRMSEDKPQDYKKRLSVELTSSLFRTEPMAWNETADLGLDIGAQGEPLGYRQDDPSYRSFHSGGYGQDALGMDPMMEHEMGGHHPGADYPVDGLPDLGHAQDLMDGLPPGDSNQLAWFDTDL

Columns and labels:
[1] = molecular target: B4; experiment: SPR
[2] = molecular target: B3; experiment: SPR
[3] = molecular target: β-catenin•epithelial cadherin cytoplasmic domain complex (BE) (human, UniProt P35222;P12830); experiment: SPR
[4] = molecular target: B3; experiment: contrast variation small-angle neutron scattering

Kd [1]: 104 ± 3.2 nM
B1: entire cytoplasmic domain of human E-cadherin (EcadCT; residues 731 to 882) (domain or fragment)
chain: not shown

Kd [2]: 12600 ± 758 nM
koff [2]: 0.002 s⁻¹
B2: complex of the β-catenin truncation mutant that lacks the N-terminal 107 residues with EcadCT (B_(N-107)E) (complex)
chain 1: QIPSTQFDAAHPTNVQRLAEPSQMLKHAVVNLINYQDDAELATRAIPELTKLLNDEDQVVVNKAAVMVHQLSKKEASRHAIMRSPQMVSAIVRTMQNTNDVETARCTAGTLHNLSHHREGLLAIFKSGGIPALVKMLGSPVDSVLFYAITTLHNLLLHQEGAKMAVRLAGGLQKMVALLNKTNVKFLAITTDCLQILAYGNQESKLIILASGGPQALVNIMRTYTYEKLLWTTSRVLKVLSVCSSNKPAIVEAGGMQALGLHLTDPSQRLVQNCLWTLRNLSDAATKQEGMEGLLGTLVQLLGSDDINVVTCAAGILSNLTCNNYKNKMMVCQVGGIEALVRTVLRAGDREDITEPAICALRHLTSRHQEAEMAQNAVRLHYGLPVVVKLLHPPSHWPLIKATVGLIRNLALCPANHAPLREQGAIPRLVQLLVRAHQDTQRRTSMGGTQQQFVEGVRMEEIVEGCTGALHILARDVHNRIVIRGLNTIPLFVQLLYSPIENIQRVAAGVLCELAQDKEAAEAIEAEGATAPLTELLHSRNEGVATYAAAVLFRMSEDKPQDYKKRLSVELTSSLFRTEPMAWNETADLGLDIGAQGEPLGYRQDDPSYRSFHSGGYGQDALGMDPMMEHEMGGHHPGADYPVDGLPDLGHAQDLMDGLPPGDSNQLAWFDTDL
chain 2: not shown

Continued, binder first:

Binder: B3
Kd [3]: 119 ± 6.3 nM
koff [3]: 0.0004 s⁻¹

Binder: B4
binding result [4]: binds
